In patent publication US20230235032A1 (published 2023):

Molecular target: T1, human α-CGRP (1-37, WT) (human, not fully specified; C-terminal amide; N-terminally biotinylated when captured on the chip; 125I-labelled in the radioligand assay)
T1 construct: also called full length human α-CGRP
T1 peptide: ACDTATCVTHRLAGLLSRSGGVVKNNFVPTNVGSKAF
Assay: Biacore competition: 50 nM G1 Fab + 10 uM peptide, over human α-CGRP on SA chip
Method: All Biacore assays were conducted in HBS-EP running buffer (10 mM HEPES pH 7.4, 150 mM NaCl, 3 mM EDTA, 0.005% v/v polysorbate P20). CGRP surfaces were prepared by diluting the N-biotinylated CGRP to a concentration of less than 0.001 mg/mL into HBS-EP buffer and injecting it across the SA sensor chip using variable contact times. […] Samples were typically injected for 1 minute at 100 μL/min and dissociation times of at least 10 minutes were allowed. […] An entire titration series (typically generated in duplicate) was fit globally to a 1:1 Langmuir binding model using the BIAevaluation program. This returned a unique pair of association and dissociation kinetic rate constants (respectively, kₒₙ and koff) for each binding interaction, whose ratio gave the equilibrium dissociation constant (KD=koff/kₒₙ).

B1: anti-CGRP antibody G1, Fab fragment (Fab, V domains shown)
VH: EVQLVESGGGLVQPGGSLRLSCAASGFTFSNYWISWVRQAPGKGLEWVAEIRSESDASATHYAEAVKGRFTISRDNAKNSLYLQMNSLRAEDTAVYYCLAYFDYGLAIQNYWGQGTLVTVSS
VL: EIVLTQSPATLSLSPGERATLSCKASKRVTTYVSWYQQKPGQAPRLLIYGASNRYLGIPARFSGSGSGTDFTLTISSLEPEDFAVYYCSQSYNYPYTFGQGTKLEIK
notes: Fab expressed in E. coli; the vector adds the CH1 constant domain of human IgG2 (Ig gamma-2 chain C region, P01859) and the human kappa light chain constant domain (CAA09181); purified on Ni-NTA, tag not described
**Q.** Which “percentage of binding blocked by competing peptide” value does the source give for B1 here?
**A.** 100%
